In the supplement of paper PMC5998384:

Columns and labels:
HeLa Kyoto [1] = experiment: solubility in G1/S (NP-40 vs SDS abundance) (log2 ratio); higher = more soluble; details: cell cycle stage: G1/S
HeLa Kyoto [2] = experiment: melting temperature (median over replicates), in situ; higher = more thermally stable
HeLa Kyoto [3] = experiment: solubility change mitosis vs G1/S (difference of NP-40 vs SDS log2 ratios) (log2 ratio difference); higher = more soluble in mitosis
HeLa Kyoto [4] = experiment: thermal stability score vs G1/S (z-score of summed log2 fold changes over temperatures); higher = more thermally stable than in G1/S
[5] = cell cycle stage: early G1 (4.5 h after nocodazole release)
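For melting temperature (median over replicates), in situ in this document: HeLa Kyoto cells synchronized by double thymidine or nocodazole block, proteins quantified by TMT10plex mass spectrometry, three independent biological replicates.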
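For solubility change mitosis vs G1/S (difference of NP-40 vs SDS log2 ratios) in this document: synchronized HeLa Kyoto cells (double thymidine block for G1/S, nocodazole release for mitosis), protein amounts in NP-40 versus SDS lysates quantified by mass spectrometry, three biological replicates.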
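For solubility in G1/S (NP-40 vs SDS abundance) in this document: HeLa Kyoto cells arrested at G1/S by double thymidine block, proteins quantified by TMT10plex mass spectrometry in mild NP-40 versus SDS extracts, three biological replicates.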
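For thermal stability score vs G1/S (z-score of summed log2 fold changes over temperatures) in this document: synchronized HeLa Kyoto cells, proteins quantified by TMT10plex mass spectrometry, three biological replicates, mitosis taken 0.5 h after nocodazole release, G1/S directly after double thymidine block.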

Sequence | solubility in G1/S (log2) (HeLa Kyoto [1]) | melting temperature (HeLa Kyoto [2]; cell cycle stage: G1/S) | melting temperature (HeLa Kyoto [2]; cell cycle stage: mitosis) | solubility change mitosis (log2) (HeLa Kyoto [3]) | thermal stability score (HeLa Kyoto [4]; [5]) | thermal stability score (HeLa Kyoto [4]; cell cycle stage: mitosis)
MDASLEKIADPTLAEMGKNLKEAVKMLEDSQRRTEEENGKKLISGDIPGPLQGSGQDMVSILQLVQNLMHGDEDEEPQSPRIQNIGEQGHMALLGHSLGAYISTLDKEKLRKLTTRILSDTTLWLCRIFRYENGCAYFHEEEREGLAKICRLAIHSRYEDFVVDGFNVLYNKKPVIYLSAAARPGLGQYLCNQLGLPFPCLCRVPCNTVFGSQHQMDVAFLEKLIKDDIERGRLPLLLVANAGTAAVGHTDKIGRLKELCEQYGIWLHVEGVNLATLALGYVSSSVLAAAKCDSMTMTPGPWLGLPAVPAVTLYKHDDPALTLVAGLTSNKPTDKLRALPLWLSLQYLGLDGFVERIKHACQLSQRLQESLKKVNYIKILVEDELSSPVVVFRFFQELPGSDPVFKAVPVPNMTPSGVGRERHSCDALNRWLGEQLKQLVPASGLTVMDLEAEGTCLRFSPLMTAAVLGTRGEDVDQLVACIESKLPVLCCTLQLREEFKQEVEATAGLLYVDDPNWSGIGVVRYEHANDDKSSLKSDPEGENIHAGLLKKLNELESDLTFKIGPEYKSMKSCLYVGMASDNVDAAELVETIAATAREIEENSRLLENMTEVVRKGIQEAQVELQKASEERLLEEGVLRQIPVVGSVLNWFSPVQALQKGRTFNLTAGSLESTEPIYVYKAQGAGVTLPPTPSGSRTKQRLPGQKPFKRSLRGSDALSETSSVSHIEDLEKVERLSSGPEQITLEASSTEGHPGAPSPQHTDQTEAFQKGVPHPEDDHSQVEGPESLR [PDXDC1] | 0.342 | 47.8 °C | 48.8 °C | -0.152 | 1.35 | 2.61
MDATALERDAVQFARLAVQRDHEGRYSEAVFYYKEAAQALIYAEMAGSSLENIQEKITEYLERVQALHSAVQSKSADPLKSKHQLDLERAHFLVTQAFDEDEKENVEDAIELYTEAVDLCLKTSYETADKVLQNKLKQLARQALDRAEALSEPLTKPVGKISSTSVKPKPPPVRAHFPLGANPFLERPQSFISPQSCDAQGQRYTAEEIEVLRTTSKINGIEYVPFMNVDLRERFAYPMPFCDRWGKLPLSPKQKTTFSKWVRPEDLTNNPTMIYTVSSFSIKQTIVSDCSFVASLAISAAYERRFNKKLITGIIYPQNKDGEPEYNPCGKYMVKLHLNGVPRKVIIDDQLPVDHKGELLCSYSNNKSELWVSLIEKAYMKVMGGYDFPGSNSNIDLHALTGWIPERIAMHSDSQTFSKDNSFRMLYQRFHKGDVLITASTGMMTEAEGEKWGLVPTHAYAVLDIREFKGLRFIQLKNPWSHLRWKGRYSENDVKNWTPELQKYLNFDPRTAQKIDNGIFWISWDDLCQYYDVIYLSWNPGLFKESTCIHSTWDAKQGPVKDAYSLANNPQYKLEVQCPQGGAAVWVLLSRHITDKDDFANNREFITMVVYKTDGKKVYYPADPPPYIDGIRINSPHYLTKIKLTTPGTHTFTLVVSQYEKQNTIHYTVRVYSACSFTFSKIPSPYTLSKRINGKWSGQSAGGCGNFQETHKNNPIYQFHIEKTGPLLIELRGPRQYSVGFEVVTVSTLGDPGPHGFLRKSSGDYRCGFCYLELENIPSGIFNIIPSTFLPKQEGPFFLDFNSIIPIKITQLQ [CAPN7] | 0.0756 | 50.4 °C | 49.7 °C | -0.0174 | -0.306 | -0.374
MDAVNAFNQELFSLMDMKPPISRAKMILITKAAIKAIKLYKHVVQIVEKFIKKCKPEYKVPGLYVIDSIVRQSRHQFGTDKDVFGPRFSKNITATFQYLYLCPSEDKSKIVRVLNLWQKNGVFKIEIIQPLLDMAAGTSNAAPVAENVTNNEGSPPPPVKVSSEPPTQATPNSVPAVPQLPSSDAFAAVAQLFQTTQGQQLQQILQTFQQPPKPQSPALDNAVMAQVQAITAQLKTTPTQPSEQKAAFPPPEQKTAFDKKLLDRFDYDDEPEAVEESKKEDTTAVTTTAPAAAVPPAPTATVPAAAAPAAASPPPPQAPFGFPGDGMQQPAYTQHQNMDQFQPRMMGIQQDPMHHQVPLPPNGQMPGFGLLPTPPFPPMAQPVIPPTPPVQQPFQASFQAQNEPLTQKPHQQEMEVEQPCIQEVKRHMSDNRKSRSRSASRSPKRRRSRSGSRSRRSRHRRSRSRSRDRRRHSPRSRSQERRDREKERERRQKGLPQVKPETASVCSTTLWVGQLDKRTTQQDVASLLEEFGPIESINMIPPRGCAYIVMVHRQDAYRALQKLSRGNYKVNQKSIKIAWALNKGIKADYKQYWDVELGVTYIPWDKVKPEELESFCEGGMLDSDTLNPDWKGIPKKPENEVAQNGGAETSHTEPVSPIPKPLPVPVPPIPVPAPITVPPPQVPPHQPGPPVVGALQPPAFTPPLGIPPPGFGPGVPPPPPPPPFLRPGFNPMHLPPGFLPPGPPPPITPPVSIPPPHTPPISIPNSTIAGINEDTTKDLSIGNPIPTVVSGARGNAESGDSVKMYGSAVPPAAPTNLPTPPVTQPVSLLGTQGVAPGPVIGLQAPSTGLLGARPGLIPLQRPPGMPPPHLQRFPLMPPRPMPPHMMHRGPPPGPGGFAMPPPHGMKGPFPPHGPFVRPGGMPGLGGPGPGPGGPEDRDGRQQPPQQPQQQPQPQAPQQPQQQQQQQPPPSQQPPPTQQQPQQFRNDNRQQFNSGRDQERFGRRSFGNRVENDRERYGNRNDDRDNSNRDRREWGRRSPDRDRHRDLEERNRRSSGHRDRERDSRDRESRREKEEARGKEKPEVTDRAGGNKTVEPPISQVGNVDTASELEKGVSEAAVLKPSEELPAEATSSVEPEKDSGSAAEAPR [SCAF4] | -0.347 | 48.5 °C | 51.4 °C | 0.211 | 0.0642 | -0.063
MDCYTANWNPLGDSAFYRKYELYSMDWDLKEELRDCLVAAAPYGGPIALLRNPWRKEKAASVRPVLDIYSASGMPLASLLWKSGPVVSLGWSAEEELLCVQEDGAVLVYGLHGDFRRHFSMGNEVLQNRVLDARIFHTEFGSGVAILTGAHRFTLSANVGDLKLRRMPEVPGLQSAPSCWTVLCQDRVAHILLAVGPDLYLLDHAACSAVTPPGLAPGVSSFLQMAVSFTYRHLALFTDTGYIWMGTASLKEKLCEFNCNIRAPPKQMVWCSRPRSKERAVVVAWERRLMVVGDAPESIQFVLDEDSYLVPELDGVRIFSRSTHEFLHEVPAASEEIFKIASMAPGALLLEAQKEYEKESQKADEYLREIQELGQLTQAVQQCIEAAGHEHQPDMQKSLLRAASFGKCFLDRFPPDSFVHMCQDLRVLNAVRDYHIGIPLTYSQYKQLTIQVLLDRLVLRRLYPLAIQICEYLRLPEVQGVSRILAHWACYKVQQKDVSDEDVARAINQKLGDTPGVSYSDIAARAYGCGRTELAIKLLEYEPRSGEQVPLLLKMKRSKLALSKAIESGDTDLVFTVLLHLKNELNRGDFFMTLRNQPMALSLYRQFCKHQELETLKDLYNQDDNHQELGSFHIRASYAAEERIEGRVAALQTAADAFYKAKNEFAAKATEDQMRLLRLQRRLEDELGGQFLDLSLHDTVTTLILGGHNKRAEQLARDFRIPDKRLWWLKLTALADLEDWEELEKFSKSKKSPIGYLPFVEICMKQHNKYEAKKYASRVGPEQKVKALLLVGDVAQAADVAIEHRNEAELSLVLSHCTGATDGATADKIQRARAQAQKK [VPS16] | -0.206 | 49.9 °C | 50.1 °C | -0.12 | 0.278 | 0.681
MDDTLFQLKFTAKQLEKLAKKAEKDSKAEQAKVKKALLQKNVECARVYAENAIRKKNEGVNWLRMASRVDAVASKVQTAVTMKGVTKNMAQVTKALDKALSTMDLQKVSSVMDRFEQQVQNLDVHTSVMEDSMSSATTLTTPQEQVDSLIMQIAEENGLEVLDQLSQLPEGASAVGESSVRSQEDQLSRRLAALRN [CHMP1A] | 0.509 | 54.4 °C | 53.9 °C | 0.313 | -0.982 | -1.61
MDEDGLPLMGSGIDLTKVPAIQQKRTVAFLNQFVVHTVQFLNRFSTVCEEKLADLSLRIQQIETTLNILDAKLSSIPGLDDVTVEVSPLNVTSVTNGAHPEATSEQPQQNSTQDSGLQESEVSAENILTVAKDPRYARYLKMVQVGVPVMAIRNKMISEGLDPDLLERPDAPVPDGESEKTVEESSDSESSFSD [CCDC53] | -0.349 | 52.7 °C | – | -0.0689 | 0.159 | -0.73
MDEMATTQISKDELDELKEAFAKVDLNSNGFICDYELHELFKEANMPLPGYKVREIIQKLMLDGDRNKDGKISFDEFVYIFQEVKSSDIAKTFRKAINRKEGICALGGTSELSSEGTQHSYSEEEKYAFVNWINKALENDPDCRHVIPMNPNTDDLFKAVGDGIVLCKMINLSVPDTIDERAINKKKLTPFIIQENLNLALNSASAIGCHVVNIGAEDLRAGKPHLVLGLLWQIIKIGLFADIELSRNEALAALLRDGETLEELMKLSPEELLLRWANFHLENSGWQKINNFSADIKDSKAYFHLLNQIAPKGQKEGEPRIDINMSGFNETDDLKRAESMLQQADKLGCRQFVTPADVVSGNPKLNLAFVANLFNKYPALTKPENQDIDWTLLEGETREERTFRNWMNSLGVNPHVNHLYADLQDALVILQLYERIKVPVDWSKVNKPPYPKLGANMKKLENCNYAVELGKHPAKFSLVGIGGQDLNDGNQTLTLALVWQLMRRYTLNVLEDLGDGQKANDDIIVNWVNRTLSEAGKSTSIQSFKDKTISSSLAVVDLIDAIQPGCINYDLVKSGNLTEDDKHNNAKYAVSMARRIGARVYALPEDLVEVKPKMVMTVFACLMGRGMKRV [PLS3] | 0.439 | 54.9 °C | 54.5 °C | 0.00363 | 1.07 | 1.27
MDEQALLGLNPNADSDFRQRALAYFEQLKISPDAWQVCAEALAQRTYSDDHVKFFCFQVLEHQVKYKYSELTTVQQQLIRETLISWLQAQMLNPQPEKTFIRNKAAQVFALLFVTEYLTKWPKFFFDILSVVDLNPRGVDLYLRILMAIDSELVDRDVVHTSEEARRNTLIKDTMREQCIPNLVESWYQILQNYQFTNSEVTCQCLEVVGAYVSWIDLSLIANDRFINMLLGHMSIEVLREEACDCLFEVVNKGMDPVDKMKLVESLCQVLQSAGFFSIDQEEDVDFLARFSKLVNGMGQSLIVSWSKLIKNGDIKNAQEALQAIETKVALMLQLLIHEDDDISSNIIGFCYDYLHILKQLTVLSDQQKANVEAIMLAVMKKLTYDEEYNFENEGEDEAMFVEYRKQLKLLLDRLAQVSPELLLASVRRVFSSTLQNWQTTRFMEVEVAIRLLYMLAEALPVSHGAHFSGDVSKASALQDMMRTLVTSGVSSYQHTSVTLEFFETVVRYEKFFTVEPQHIPCVLMAFLDHRGLRHSSAKVRSRTAYLFSRFVKSLNKQMNPFIEDILNRIQDLLELSPPENGHQSLLSSDDQLFIYETAGVLIVNSEYPAERKQALMRNLLTPLMEKFKILLEKLMLAQDEERQASLADCLNHAVGFASRTSKAFSNKQTVKQCGCSEVYLDCLQTFLPALSCPLQKDILRSGVRTFLHRMIICLEEEVLPFIPSASEHMLKDCEAKDLQEFIPLINQITAKFKIQVSPFLQQMFMPLLHAIFEVLLRPAEENDQSAALEKQMLRRSYFAFLQTVTGSGMSEVIANQGAENVERVLVTVIQGAVEYPDPIAQKTCFIILSKLVELWGGKDGPVGFADFVYKHIVPACFLAPLKQTFDLADAQTVLALSECAVTLKTIHLKRGPECVQYLQQEYLPSLQVAPEIIQEFCQALQQPDAKVFKNYLKVFFQRAKP [XPOT] | -0.059 | 49.5 °C | 50.1 °C | -0.226 | 1.65 | 3.04
MDETSPLVSPERAQPPDYTFPSGSGAHFPQVPGGAVRVAAAAGSGPSPPGSPGHDRERQPLLDRARGAAAQGQTQTVAAQAQALAAQAAAAAHAAQAHRERNEFPEDPEFEAVVRQAELAIERCIFPERIYQGSSGSYFVKDPQGRIIAVFKPKNEEPYGHLNPKWTKWLQKLCCPCCFGRDCLVLNQGYLSEAGASLVDQKLELNIVPRTKVVYLASETFNYSAIDRVKSRGKRLALEKVPKVGQRFNRIGLPPKVGSFQLFVEGYKDADYWLRRFEAEPLPENTNRQLLLQFERLVVLDYIIRNTDRGNDNWLIKYDCPMDSSSSRDTDWVVVKEPVIKVAAIDNGLAFPLKHPDSWRAYPFYWAWLPQAKVPFSQEIKDLILPKISDPNFVKDLEEDLYELFKKDPGFDRGQFHKQIAVMRGQILNLTQALKDNKSPLHLVQMPPVIVETARSHQRSSSESYTQSFQSRKPFFSWW [PI4K2A] | 0.202 | 53.9 °C | 53.6 °C | -0.137 | 1.81 | -1.09
